Among the data in patent publication US20210380703A1 (RIGEL PHARMACEUTICALS, published 2021) are optical density values, retold here.

One test has as its target T1, Goat anti-Human Kappa.
T1 construct: Positive control of the ELISA; also called biotinylated goat anti-human kappa light chain
In words: ELISA, positive control. The procedure, abridged: (§1)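 Binding signal was read by ELISA after ACVR2A-specific monoclonal antibodies were tested against human ACVR2A and mouse ACVR2A, with human Fc as the negative control.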
On the technique in general: ELISA stands for enzyme-linked immunosorbent assay.

The target in a further test is T2, Human ACVR2A (human, UniProt P27037 20-135, limits assumed).
T2 construct: also called activin receptor, type II A
T2 sequence (P27037 20-135 limits assumed): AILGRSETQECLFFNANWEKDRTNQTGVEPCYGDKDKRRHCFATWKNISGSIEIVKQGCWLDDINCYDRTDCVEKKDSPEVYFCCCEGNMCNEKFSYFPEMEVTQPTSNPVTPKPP
The test can be described thus: ELISA. The procedure, abridged: as §1

The target in a further test is Mouse ACVR2A (mouse, UniProt P27038 20-135, limits assumed). The test can be described thus: ELISA. Summed up: as §1
Chain of Mouse ACVR2A (P27038 20-135 limits assumed): as the sequence (P27037 20-135 limits assumed) above, with K20R, V73I counted along it
Further: test concentration or dose not given here.

B1: 370_H01 (antibody, V domains shown)
VH: EVQLLESGGGLVQPGGSLRLSCAASGFTFSSYSMNWVRQAPGKGLEWVSGINYNSGYKGYADSVKGRFTISRDNSKNTLYLQMNSLRAEDTAVYYCARSANWHDTALDYWGQGTLVTVSS
VL: DIQMTQSPSSLSASVGDRVTITCRASQSIISYLNWYQQKPGKAPKLLIYAVTSRASGVPSRFSGSGSGTDFTLTISSLQPEDFATYYCQQSYDTPLTFGGGTKVEIK
B1: the optical density turned out to be 3.65 OD with Goat anti-Human Kappa, 3.31 OD in the test with Human ACVR2A and 3.18 OD with Mouse ACVR2A.

B2: 371_G05 (antibody, V domains shown)
VH: EVQLLESGGGLVQPGGSLRLSCAASGFTFDSYSMNWVRQAPGKGLEWVSGINYNSGYTGYADSVKGRFTISRDNSKNTLYLQMNSLRAEDTAVYYCARSANWHDTALDYWGQGTLVTVSS
VL: DIQMTQSPSSLSASVGDRVTITCRASQSISSYLNWYQQKPGKAPKLLIYAVTSRASGVPSRFSGSGSGTDFTLTISSLQPEDFATYYCQQSYSSPLTFGGGTKVEIK
As to B2, the values for the optical density with Goat anti-Human Kappa, with Human ACVR2A and with Mouse ACVR2A were 3.08 OD, 1.25 OD and 1.33 OD, respectively.

B3: 371_A12 (antibody, V domains shown)
VH: EVQLLESGGGLVQPGGSLRLSCAASGFTFDSYSMNWVRQAPGKGLEWVAGINYNSGYTSYADSVKGRFTISRDNSKNTLYLQMNSLRAEDTAVYYCARSANWHDTALDYWGQGTLVTVSS
VL: DIQMTQSPSSLSASVGDRVTITCRASQSILSYVNWYQQKPGKAPKLVIYAATSLASGVPSRFSGSGSGTDFTLTISSLQPEDFATYYCQQSYDTPLTFGGGTKVEIK
On to B3, for which the optical density is 3.63 OD with Goat anti-Human Kappa, 3.17 OD with Human ACVR2A and 3.3 OD with Mouse ACVR2A.

B4: 371_A03 (antibody, V domains shown)
VH: EVQLLESGGGLVQPGGSLRLSCAASGFTFSDYGMNWVRQAPGKGLEWVANINYNGGYTGYADSVKGRFTISRDNSKNTLYLQMNSLRAEDTAVYYCARSANWHDTALDYWGQGTLVTVSS
VL: DIQMTQSPSSLSASVGDRVTITCRASQSILSYLNWYQQKPGKAPKLVIYATTSRASGVPSRFSGSGSGTDFTLTISSLQPEDFATYYCQQSYESPLTFGGGTKVEIK
B4: the optical density came to 3.56 OD with Goat anti-Human Kappa, 2.84 OD in the test with Human ACVR2A and 2.62 OD with Mouse ACVR2A.

B5: 371_F08 (antibody, V domains shown)
VH: EVQLLESGGGLVQPGGSLRLSCAASGFTFDDYSMNWVRQAPGKGLEWVSGINYNGGYTGYADSVKGRFTISRDNSKNTLYLQMNSLRAEDTAVYYCARSANWHDTALDYWGQGTLVTVSS
VL: DIQMTQSPSSLSASVGDRVTITCRASQSIVSYVNWYQQKPGKAPKLVIYAATSRHSGVPSRFSGSGSGTDFTLTISSLQPEDFATYYCQQSYESPLTFGGGTKVEIK
Take B5: the results for the optical density with Goat anti-Human Kappa, with Human ACVR2A and with Mouse ACVR2A were 3.43 OD, 2.2 OD and 2.55 OD, respectively.

B6: 371_B07 (antibody, V domains shown)
VH: EVQLLESGGGLVQPGGSLRLSCAASGFTFDSYSMNWVRQAPGKGLEWVAGINYNGGYTSYADSVKGRFTISRDNSKNTLYLQMNSLRAEDTAVYYCARSANWHDTALDYWGQGTLVTVSS
VL: DIQMTQSPSSLSASVGDRVTITCRASQSILTYVNWYQQKPGKAPKLLIYAATSRASGVPSRFSGSGSGTDFTLTISSLQPEDFATYYCQQSYELPLTFGGGTKVEIK
B6: the optical density in the test with Goat anti-Human Kappa was determined as 3.33 OD; with Human ACVR2A it was 2.78 OD; with Mouse ACVR2A, 3.04 OD.

B7: 371_F04 (antibody, V domains shown)
VH: EVQLLESGGGLVQPGGSLRLSCAASGFTFDSYSMNWVRQAPGKGLEWVAGINYNSGYKGYADSVKGRFTISRDNSKNTLYLQMNSLRAEDTAVYYCARSANWHDTALDYWGQGTLVTVSS
VL: DIQMTQSPSSLSASVGDRVTITCRASQSILSYLNWYQQKPGKAPKLLIYAATSRHSGVPSRFSGSGSGTDFTLTISSLQPEDFATYYCQQSYNNPLTFGGGTKVEIK
On to B7, for which the figures for the optical density in the test with Goat anti-Human Kappa, in the test with Human ACVR2A and with Mouse ACVR2A were 3.66 OD, 2.95 OD and 3.1 OD, respectively.

B8: 371_A08 (antibody, V domains shown)
VH: EVQLLESGGGLVQPGGSLRLSCAASGFTFSSYGMHWVRQAPGKGLEWVSSINYNGGYTSYADSVKGRFTISRDNSKNTLYLQMNSLRAEDTAVYYCARSANWHDTALDYWGQGTLVTVSS
VL: DIQMTQSPSSLSASVGDRVTITCRASQSILSYLNWYQQKPGKAPKLVIYAATSRASGVPSRFSGSGSGTDFTLTISSLQPEDFATYYCQQSYELPLTFGGGTKVEIK
On to B8, for which the optical density was 2.44 OD with Goat anti-Human Kappa, 1.06 OD in the test with Human ACVR2A and 1.16 OD with Mouse ACVR2A.

B9: 371_D06 (antibody, V domains shown)
VH: EVQLLESGGGLVQPGGSLRLSCAASGFTFDDYSMNWVRQAPGKGLEWVAGINYNGGYTSYADSVKGRFTISRDNSKNTLYLQMNSLRAEDTAVYYCARSANWHDTALDYWGQGTLVTVSS
VL: DIQMTQSPSSLSASVGDRVTITCRASQSIISYVNWYQQKPGKAPKLLIYAATSRASGVPSRFSGSGSGTDFTLTISSLQPEDFATYYCQQSYSTPLTFGGGTKVEIK
As for B9, the optical density came to 3.32 OD with Goat anti-Human Kappa, 1.48 OD with Human ACVR2A and 1.55 OD with Mouse ACVR2A.

B10: 370_H09 (antibody, V domains shown)
VH: EVQLLESGGGLVQPGGSLRLSCAASGFTFSSYGMNWVRQAPGKGLEWVANINYNGGYTSYADSVKGRFTISRDNSKNTLYLQMNSLRAEDTAVYYCARSANWHDTALDYWGQGTLVTVSS
VL: DIQMTQSPSSLSASVGDRVTITCRASQSIVSYVNWYQQKPGKAPKLLIYAATSRASGVPSRFSGSGSGTDFTLTISSLQPEDFATYYCQQSYDNPLTFGGGTKVEIK
B10: the optical density with Goat anti-Human Kappa was found to be 3.54 OD; with Human ACVR2A, 2.95 OD; in the test with Mouse ACVR2A, 3.28 OD.

B11: 371_B06 (antibody, V domains shown)
VH: EVQLLESGGGLVQPGGSLRLSCAASGFTFDSYSMNWVRQAPGKGLEWVAGINYNGGYKSYADSVKGRFTISRDNSKNTLYLQMNSLRAEDTAVYYCARSANWHDTALDYWGQGTLVTVSS
VL: DIQMTQSPSSLSASVGDRVTITCRASQSILTYVNWYQQKPGKAPKLVIYAATSRHSGVPSRFSGSGSGTDFTLTISSLQPEDFATYYCQQSYNLPLTFGGGTKVEIK
With B11, the values for the optical density with Goat anti-Human Kappa, in the test with Human ACVR2A and in the test with Mouse ACVR2A were 3.3 OD, 2.69 OD and 2.71 OD, respectively.

B12: 371_D09 (antibody, V domains shown)
VH: EVQLLESGGGLVQPGGSLRLSCAASGFTFSSYSMNWVRQAPGKGLEWVSNINYNSGYTGYADSVKGRFTISRDNSKNTLYLQMNSLRAEDTAVYYCARSANWHDTALDYWGQGTLVTVSS
VL: DIQMTQSPSSLSASVGDRVTITCRASQSILTYLNWYQQKPGKAPKLVIYAATSRASGVPSRFSGSGSGTDFTLTISSLQPEDFATYYCQQSYNNPLTFGGGTKVEIK
Turning to B12, the optical density with Goat anti-Human Kappa was determined as 2.17 OD; in the test with Human ACVR2A it was 2.89 OD; with Mouse ACVR2A it was 2.94 OD.

B13: 371_F06 (antibody, V domains shown)
VH: EVQLLESGGGLVQPGGSLRLSCAASGFTFDSYSMNWVRQAPGKGLEWVANINYNGGYTSYADSVKGRFTISRDNSKNTLYLQMNSLRAEDTAVYYCARSANWHDTALDYWGQGTLVTVSS
VL: DIQMTQSPSSLSASVGDRVTITCRASQSIVSYLNWYQQKPGKAPKLVIYAATSRHSGVPSRFSGSGSGTDFTLTISSLQPEDFATYYCQQSYNSPLTFGGGTKVEIK
Turning to B13, the optical density in the test with Goat anti-Human Kappa was 3.46 OD; with Human ACVR2A, 2.41 OD; with Mouse ACVR2A, 2.79 OD.

B14: 371_C03 (antibody, V domains shown)
VH: EVQLLESGGGLVQPGGSLRLSCAASGFTFSSYSMNWVRQAPGKGLEWVSNINYNGGYKGYADSVKGRFTISRDNSKNTLYLQMNSLRAEDTAVYYCARSANWHDTALDYWGQGTLVTVSS
VL: DIQMTQSPSSLSASVGDRVTITCRASQSILSYLNWYQQKPGKAPKLVIYATTSRASGVPSRFSGSGSGTDFTLTISSLQPEDFATYYCQQSYSTPLTFGGGTKVEIK
Consider B14, for which the results for the optical density with Goat anti-Human Kappa, with Human ACVR2A and with Mouse ACVR2A were 3.6 OD, 3.01 OD and 3.24 OD, respectively.

B15: 371_A06 (antibody, V domains shown)
VH: EVQLLESGGGLVQPGGSLRLSCAASGFTFSSYGMNWVRQAPGKGLEWVAGINYNGGYTSYADSVKGRFTISRDNSKNTLYLQMNSLRAEDTAVYYCARSANWHDTALDYWGQGTLVTVSS
VL: DIQMTQSPSSLSASVGDRVTITCRASQSILTYLNWYQQKPGKAPKLVIYAATSRHSGVPSRFSGSGSGTDFTLTISSLQPEDFATYYCQQSYDSPLTFGGGTKVEIK
Take B15: the results for the optical density with Goat anti-Human Kappa, with Human ACVR2A and with Mouse ACVR2A were 3.51 OD, 2.65 OD and 2.79 OD, respectively.

B16: 371_F01 (antibody, V domains shown)
VH: EVQLLESGGGLVQPGGSLRLSCAASGFTFSSYSMNWVRQAPGKGLEWVAGINYNGGYTGYADSVKGRFTISRDNSKNTLYLQMNSLRAEDTAVYYCARSANWHDTALDYWGQGTLVTVSS
VL: DIQMTQSPSSLSASVGDRVTITCRASQSILTYVNWYQQKPGKAPKLVIYAATSLASGVPSRFSGSGSGTDFTLTISSLQPEDFATYYCQQSYNNPLTFGGGTKVEIK
Take B16: the optical density in the test with Goat anti-Human Kappa was 3.68 OD; with Human ACVR2A, 2.41 OD; in the test with Mouse ACVR2A it was 2.62 OD.

B17: 371_A07 (antibody, V domains shown)
VH: EVQLLESGGGLVQPGGSLRLSCAASGFTFSDYSMNWVRQAPGKGLEWVSNINYNGGYKSYADSVKGRFTISRDNSKNTLYLQMNSLRAEDTAVYYCARSANWHDTALDYWGQGTLVTVSS
VL: DIQMTQSPSSLSASVGDRVTITCRASQSILSYLNWYQQKPGKAPKLVIYATTSRASGVPSRFSGSGSGTDFTLTISSLQPEDFATYYCQQSYDLPLTFGGGTKVEIK
Consider B17, for which the results for the optical density in the test with Goat anti-Human Kappa, with Human ACVR2A and with Mouse ACVR2A were 3.65 OD, 2.88 OD and 3.06 OD, respectively.
